Test results taken from patent publication US20210301011A1, “COMPOSITION FOR PROPHYLAXIS OR TREATMENT OF IL-8 RELATED DISEASES” (CHUGAI SEIYAKU KABUSHIKI KAISHA, priority 2016, published 2021).
Entries after “also recorded” stand apart in the source; their conditions may differ.

Columns and labels:
[1] = tested on: adenomyosis lesions; assay: Adenomyosis lesions in surgically-induced endometriosis monkey models; format: in vivo, cynomolgus monkeys; conditions: one case per group, compared to vehicle group
Excerpt: After the final laparoscopic observation six months after the start of antibody administration in surgically-induced endometriosis monkey models, the uteri collected during autopsy were fixed with 10% neutral buffered formalin and HE-stained for observation. Endometrial tissues analogous to those of adenomyosis were strongly seen in the uterus in one case of the vehicle group as well as in one case of the antibody administration group. […] Thus, the monkeys were considered as being a human adenomyosis complication model, and the endometrial tissues in the myometria of these single cases were compared.

[2] = tested on: post-surgical adhesion; assay: Adhesion after surgery (area surrounding the incision site in the abdominal wall) in endometriosis monkey models; format: in vivo, cynomolgus monkeys; conditions: 10 mg/kg; before vs six months after initiation of administration
Procedure: Specifically, adhesion to the area surrounding the incision site on the abdominal wall was compared before and after administration and evaluated by five evaluators on a three-point scale: (1) Improved, (2) Stable, and (3) Progressed. Ratings with a consensus among three or more of the five evaluators were adopted; otherwise (2) Stable was used. Evaluations were carried out on six monkeys in the vehicle group as well as seven monkeys in the antibody […]/[…]-[…] administration group. […] The monkey with “Progressed” was an individual in which the blood concentration of antibody […]/[…]-[…] had decreased due to anti-antibody production.

[3] = molecular target: T1, cynomolgus monkey FcγRIIIa (Macaca fascicularis, UniProt Q8SPW2); assay: Binding to soluble FcγR (BIACORE T200); conditions: 20° C., HBS-EP+
T1 construct: the soluble forms of FcγRIa and FcγRIIIa in human and cynomolgus monkey; His tag; made in house
T1 sequence (Q8SPW2 17-208 limits assumed): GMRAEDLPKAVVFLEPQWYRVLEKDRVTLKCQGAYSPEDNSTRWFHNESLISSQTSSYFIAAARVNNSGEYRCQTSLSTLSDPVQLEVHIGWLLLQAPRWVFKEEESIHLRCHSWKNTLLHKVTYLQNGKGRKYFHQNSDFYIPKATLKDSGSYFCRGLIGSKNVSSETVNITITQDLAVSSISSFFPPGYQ
Procedure: (§1) Soluble FcγRIa and FcγRIIIa in both human and cynomolgus monkey were produced in the form of His-tagged molecules by methods known to those of ordinary skill in the art. […] Next, soluble FcγRIa or FcγRIIIa was injected with a running buffer (used as a reference solution), and was made to interact with the antibodies captured onto the sensor chip. HBS-EP+(GE Healthcare) was used as the running buffer, and HBS-EP+ was also used to dilute the soluble FcγRIa or FcγRIIIa. […] All measurements were carried out at 20° C.

[4] = molecular target: T2, human FcγRIIIa (Homo sapiens, UniProt P08637); assay: Binding to soluble FcγR (BIACORE T200); conditions: 20° C., HBS-EP+
T2 construct: the soluble forms of FcγRIa and FcγRIIIa in human and cynomolgus monkey; His tag; made in house
T2 sequence (P08637 17-208 limits assumed): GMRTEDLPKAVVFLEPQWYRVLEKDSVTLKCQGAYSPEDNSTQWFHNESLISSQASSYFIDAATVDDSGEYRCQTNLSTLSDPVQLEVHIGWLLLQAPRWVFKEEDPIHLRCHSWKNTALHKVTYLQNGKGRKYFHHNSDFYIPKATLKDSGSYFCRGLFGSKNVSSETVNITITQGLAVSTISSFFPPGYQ
Procedure: as §1

[5] = tested on: cynomolgus monkey FcγRIa; assay: Binding to soluble FcγR (BIACORE T200); conditions: 20° C., HBS-EP+
Procedure: as §1

[6] = molecular target: T3, human FcγRIa (Homo sapiens, UniProt P12314); assay: Binding to soluble FcγR (BIACORE T200); conditions: 20° C., HBS-EP+
T3 construct: the soluble forms of FcγRIa and FcγRIIIa in human and cynomolgus monkey; His tag; made in house
T3 sequence (P12314 16-292 limits assumed): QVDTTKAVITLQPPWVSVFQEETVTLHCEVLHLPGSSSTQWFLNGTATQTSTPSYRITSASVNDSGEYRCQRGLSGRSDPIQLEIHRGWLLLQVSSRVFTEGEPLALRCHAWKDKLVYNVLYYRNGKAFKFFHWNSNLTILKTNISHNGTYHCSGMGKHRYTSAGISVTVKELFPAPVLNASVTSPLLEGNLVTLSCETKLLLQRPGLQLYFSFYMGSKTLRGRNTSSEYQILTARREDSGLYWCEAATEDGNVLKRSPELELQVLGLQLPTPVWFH
Procedure: as §1

[7] = tested on: post-surgical adhesion; assay: Post-surgical adhesion-induced monkey model; format: in vivo, cynomolgus monkeys; set-up: key: ∘: Adhesion found; x: No adhesion; conditions: 10 mg/kg i.v. one hour or less after surgery; laparoscopy 24 to 35 days after; per animal
Procedure: To prepare a post-surgical adhesion-induced model, female cynomolgus monkeys 9 to 16 years of age (provided by the Tsukuba Primate Research Center at the National Institutes of Biomedical Innovation, Health and Nutrition) were treated under anesthesia as follows. Anesthesia was performed using balanced anesthesia of ketamine/xylazine (mixed at an adequate ratio of about 2:1) and isoflurane. An incision of 5 to 6 cm was made in the median line of the abdominal wall. After opening the abdomen, a 1-cm incision was made on the uterine corpus and sutured with 4 stitches using a single suture. Then, the whole uterus was brushed five times with gauze. Next, a 1-cm incision was made to the right abdominal wall peritoneal part at 2 cm from the incised median line of the abdominal wall and sutured by running suture with 4 stitches using an absorbable suture. After suture, the sutured part was brushed five times with gauze. Likewise, the peritoneum of left abdominal wall was incised, sutured, and brushed with gauze. Finally, the median line of abdominal wall was sutured by running suture with 10 to 11 stitches. The entire steps were completed in one hour or less. The antagonist Antisedan (in roughly the same amount as that of xylazine) and the antibiotic cephradine were administered at the time of awakening after surgery. Then, the pain reliever Zalban was administered for two days after surgery, and the monkeys were observed regularly every day to confirm the absence of post-surgical abnormalities. At laparoscopic observation, anesthesia and post-surgical monitoring were also performed in the same way.
The control group was untreated. 24 to 35 days after administration of the anti-IL-8 antibody, laparoscopy was performed to observe the adhesion formed due to incision, suture, and blushing with gauze. The abdomen was incised in the median line under anesthesia, and laparoscopic observation was performed by inserting a trocar and then introducing a laparoscope. The laparoscope was connected to a video system (KARL STORZ) and a monitor. The video system was used for recording, and the monitor was used for intraperitoneal observation. The size of the adhesion was measured using a graduated bar or graduated forceps. The presence, range, and location of adhesion were assessed during laparoscopic observation. […] Although adhesion was found in individual No. 206 in the anti-IL-8 antibody administration group, no adhesion was found in the right and left abdominal wall peritoneum or at the uterine incision site in individual No. 201. […] Those skilled in the art will naturally appreciate that anti-IL-8 antibodies may exert a stronger adhesion formation-preventive effect by appropriately altering the timing of administration or such. […]

binding to soluble cynomolgus monkey FcγRIIIa [3]: not to bind to any of the FcγRs
binding to soluble human FcγRIIIa [4]: not to bind to any of the FcγRs
binding to soluble cynomolgus monkey FcγRIa [5]: not to bind to any of the FcγRs
binding to soluble human FcγRIa [6]: not to bind to any of the FcγRs
B1: H1009/L395-F1974m: H1009-F1974m (SEQ ID NO:36) heavy chain, L395-kOMT light chain; the anti-IL-8 antibody of Table 29 (antibody)
heavy: QVQLVESGGGLVQPGGSLRLSCAASGFTFSDYYLSWVRQAPGKGLEWVGLIRNKDNYHTPEYSASVKGRFTISRDDSKNSLYLTMSDLKTEDTAVYYCARENHRYDVELAYWGQGTLVTVSSASTKGPSVFPLAPSSKSTSGGTAALGCLVKDYFPEPVTVSWNSGALTSGVHTFPAVLQSSGLYSLSSVVTVPSSSLGTQTYICNVNHKPSNTKVDKKVEPKSCDKTHTCPPCPAPELRRGPSVFLFPPKPKDTLMISRTPEVTCVVVDVSHEDPEVKFNWYVDGVEVHNAKTKPREEQYNSTYRVVSVLTVLHQDWLNGKEYKCKVSNKGLPSSIEKTISKAKGQPREPQVYTLPPSREEMTKNQVSLTCLVKGFYPSDIAVEWESNGQPENNYKTTPPVLDSDGSFFLYSKLTVDKSRWQQGNVFSCSVLHEALHAHTTRKELSLSP
light: DIQMTQSPSSLSASVGDRVTITCRASEIIYSYLAWYQQKPGKAPKLLIYKAKTHADGVPSRFSGSGSGTDFTFTISSLQPEDIATYYCKHHFGFPRTFGQGTKVEIKRTVAAPSVFIFPPSDEQLKSGTASVVCLLNNFYPREAKVQWKVDNALQSGNSQESVTEQDSKDSTYSLSSTLTLSKADYEKHKVYACEVTHQGLSSPVTKSFNRGEC
histology of adenomyosis lesions (HE staining) [1]: atrophy of endometrial epithelia in the adenomyosis lesions as well as reduction and atrophy of stromal cells were observed; also recorded: Atrophy of endometrial epithelium, and atrophy and reduction of stromal cells were observed
post-surgical adhesion: Improved (monkeys/total) [2]: 6/7
post-surgical adhesion: Progressed (monkeys/total) [2]: 1/7
post-surgical adhesion: Stable (monkeys/total) [2]: 0/7
adhesion at incision site: Abdominal wall, Median line [7]: ∘
adhesion at incision site: Abdominal wall, Peritoneum (L) [7]: ∘ and x
adhesion at incision site: Abdominal wall, Peritoneum (R) [7]: ∘ and x
adhesion at incision site: Uterus [7]: ∘ and x
